{
  "source": "the nanobody polyreactivity screen of Harvey et al. (2022)",
  "data": [
    {"test": "yeast display, Sf9 membrane polyspecificity reagent, FACS + sequencing; frameworks hold sequencing errors", "method_in_brief": "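Galactose induction of a Saccharomyces cerevisiae BJ5465 synthetic nanobody display library ran 36–48 hours. The cells were then stained for 1 hour at 4 °C with 10% biotinylated, detergent-solubilized Sf9 membrane reagent, pulled down on streptavidin microbeads and FACS-sorted into low and high (top ~1%) gates on expression and reagent-binding fluorescence. Labels for polyreactivity follow the gate of origin.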", "values": [
      {"sequence": "QVQLVESGGRLVQAGGSLRLSCAASGFTFWNYAMGWYRQAPGKERELVAAISRSGTSTYYADSVKGRFTISRDYAKNTVYLQMNSLKPEDTAVYYCNVLRVKSITYLMDYWGQGTQVTVSS", "polyreactivity (PSR sort gate)": "high polyreactivity"},
      {"sequence": "QVQLVESGGRLVQAGGSLRLSCAASGIIFRFYPMGWSRQAPGKERELVAAIRTSGGSTYYADSVKGRFTISRDNAKNTVYLQMNSLKPEDTAVYYCAAGPRAYSYRIYALYYWGQGTQVTVSS", "polyreactivity (PSR sort gate)": "high polyreactivity"},
      {"sequence": "QVQLVESGGRLVQAGGSLRLSCAASGITIRWYAKGWYRQAPGKERELVSRIDGRGASTYADSVKGRFTSSRDNAKNTVYLQMNRLKPEDTAVYYCAVAQVRVSYLWVRKFYYWGQGTQVTVSS", "polyreactivity (PSR sort gate)": "high polyreactivity"},
      {"sequence": "QVQLVESGGRLVQAGGSLRLSCAASGLIFVHYAMGWYRQSPGKERELVAAISAGGGSTYYADSVKGRFTISRDNAKNTVYLQMNSLKPEDTAVYYCNARVVNYVRPRTGAREYDFWGQGTQVTVSS", "polyreactivity (PSR sort gate)": "high polyreactivity"},
      {"sequence": "QVQLVESGGRLVQAGGSLRLSCAASGRIFGYYAMGWYRQAPGKERELVAAISSGGNTYYADSVKGRFTISRDNAKNTVYLQMNSLKPEDTAVYYCNEVYVGWQYGYDYWGQGTQVTVSS", "polyreactivity (PSR sort gate)": "low polyreactivity"},
      {"sequence": "QVQLVESGGRLVQAGGSLRLSCAASGRIFNRYAMGWYRQAPGKERELVAAITRGGSTYYADSVKGRFTMSRDNAKITVYLQMNSLKPEDSAVYYCAGRVGYPYYYWGQGTQVTVSS", "polyreactivity (PSR sort gate)": "high polyreactivity"},
      {"sequence": "QVQLVESGGRLVQAGGSLRLSCAASGRIFSRNAMGWYRQAPGKERELVAGISARGGRTYYADSVKGRFTISRDNAKNTVYLQMNSLKPEDTAVYYCAASFSAIRGGVRVTIDYYWGQGTQVTVSS", "polyreactivity (PSR sort gate)": "high polyreactivity"},
      {"sequence": "QVQLVESGGRLVQAGGSLRLSCAASGRIFVVNAMGWYRQAPGKEREFVAAITDNTGSTYYADSVKGRFTISRDNAKNTGYLQMNSLNPEDTAVYYCAAYGYSKDLWNFYYWGQGTQVTVSS", "polyreactivity (PSR sort gate)": "low polyreactivity"},
      {"sequence": "QVQLVESGGRLVQAGGSLRLSCAASGRIFWHNAMGWYRQAPGKETELVAAISSRGGSTSYSDSVKGRFTISRDNAKNTVYLQMNSLKPEDTAVYYCAALFRPRVHRYDYWGQGTQVTVSS", "polyreactivity (PSR sort gate)": "low polyreactivity"},
      {"sequence": "QVQLVESGGRLVQAGGSLRLSCAASGRLFASNAMGWYLQAPGTEMELVAGNSRNGGSTFYADSVKGRFTISRDNAKNTVYLQMNSRKPEDSAVYYCARYYTHSGGYRDRIYYFWGQGTQVTVSS", "polyreactivity (PSR sort gate)": "low polyreactivity"},
      {"sequence": "QVQLVESGGRLVQAGGSLRLSCAASGRTFDFYAMGWYRQAPGKERELVAAISSRGGSTYYADSVKGRFTISRDNAKNTVYLQMNSLKPEDTAVYYCAKDLGYRGRYNYWGQGTQVTVSS", "polyreactivity (PSR sort gate)": "low polyreactivity"},
      {"sequence": "QVQLVESGGRLVQAGGSLRLSCAASGRTFLHNAMGWYRQAPGKERELVAAIDSGGTTHYADSVKGRFTISRDNAKNTVYLQMNSLKPEDTAVYNCAARPTRGHWWYGNWGQGTQVTVTS", "polyreactivity (PSR sort gate)": "low polyreactivity"},
      {"sequence": "QVQLVESGGRLVQAGGSLRLSCAASGRTFVSYAMGWYRQAPGKERELVATITGSTGGTYYADSVKGRFTISRDNAKNTVYLQMNSLKPEDTAVYYCNKDYYYNPGNVASGYDYWGHGTQVTVSS", "polyreactivity (PSR sort gate)": "low polyreactivity"},
      {"sequence": "QVQLVESGGRLVQAGGSLRLSCAASGSIFAWSMGWYRPAPGKERELVAAISSGGSTYYADSVKGRFTISRDNAKNTVYFQMNSLKPEDTAVYYCAAGLISRFSRYYFWGQGTQVTVSS", "polyreactivity (PSR sort gate)": "high polyreactivity"},
      {"sequence": "QVQLVESGGRLVQAGGSLRLSCAASGSIFRYYALGWYRQAPGKERELVAAISWSGGSTYYADSVKGRFTISRDNAKNTVYLQMNSLKPEDTAVYYCATTPGVWSTGGTNGFGYWGQGNQVTVSS", "polyreactivity (PSR sort gate)": "high polyreactivity"},
      {"sequence": "QVQLVESGGRLVQAGGSLRLSCAASGSIIAWYVLGWYRRAAGKERELVAGIDTSGGSTFYADSVMGRFTISRDIAKNTVYLQMNSLKTEATAVYYCAADTWYRGPWEFDYWGQGTQVTVSS", "polyreactivity (PSR sort gate)": "low polyreactivity"},
      {"sequence": "QVQLVESGGRLVQAGGSLRLSCAASGSTFRGYAMGWYIPAPGKEWELVATITSGGSTKYADSVKGRFTISRDNAKNTVYLQMNSLKPEDTAVYYCNAVPRSWSPYRHWFDYWGQGTQVTVSS", "polyreactivity (PSR sort gate)": "low polyreactivity"},
      {"sequence": "QVQLVESGGRLVQAGGSLRLSCAASGSTFVCYAMGWYRQAPGKERELVAAISSGGRTHYADSVMARFTISRDNAKNTVILQMNSLKREDTAFYYCNAAYYILRFRYDYWGQGTQVTVSS", "polyreactivity (PSR sort gate)": "high polyreactivity"},
      {"sequence": "QVQLVESGGRLVQAGGSLRLSCAASGSTFYPYAMGWYRQAPGKERELVAAINGNGGRTYYADSVKGRFTISRDNAKNTVYLQMNSLKPEDTAVYYCAVVRVAWGHRSDYWGQGTQVTVSS", "polyreactivity (PSR sort gate)": "high polyreactivity"},
      {"sequence": "QVQLVESGGRLVQAGGSLRLSCAASGYIFKTNVMGWYRQAPGKEREMVAAISWSGGRTYYADSVKGRFTISRDYGKNCVYLQMNSLKPEDTSVYYFAAVGRQSIYFVDYDFWGQGTQVTVSS", "polyreactivity (PSR sort gate)": "high polyreactivity"},
      {"sequence": "QVQLVESGGRLVQAGGSLRLSCAAYGSTFQGYAMGWYRQAPGKERELVADISWSGGSTYYADSVKGRFTISRDNAKNTVYLQMNSLKPEDTAVYYCNAVGYLDFEWGQGTQVTVSS", "polyreactivity (PSR sort gate)": "low polyreactivity"},
      {"sequence": "QVQLVESGGRLVQAGGSLRLSCASSGFTFRYYAMGWYRQAPGKERELVASITGNGGSTYYADSVKGRFTISRDNAKNTVFLHMNSLKPEDTAVYYCNARVRGYYEYNYWGQGTQVTVSS", "polyreactivity (PSR sort gate)": "high polyreactivity"},
      {"sequence": "QVQLVESGGRLVQAGGSLRLSCSASGLTFTNYAMGSYRQAPGKERELVAAISNSGATTYYADSVKGRFTISRDNAKNTVYVQLKSLKPEDTAVYYCAATSYTATWRYYYWGQGTQVTVSS", "polyreactivity (PSR sort gate)": "high polyreactivity"},
      {"sequence": "QVQLVESGGRLVQAGGSLSISCAASGSTFTSYSMGWYRQAPGKERELVAAIRRIGGDTYYADSVKGRFTISRDNAKNTVYLQMNSLKPEDTAVNYCAAVRWRSEPYWYHAMEHWGQGTQVTVSS", "polyreactivity (PSR sort gate)": "low polyreactivity"},
      {"sequence": "QVQLVESGGRLVQAGGSRRLSCAASGFTFGIYAMGWYRQAPGKARELVAAITSGGITKYADSVKGRFTISRDNAKNTVYLQMKSLKPEDTAVYYCAATGFRQSYDSTWYRYDYWGQGTQVTVSS", "polyreactivity (PSR sort gate)": "low polyreactivity"},
      {"sequence": "QVQLVESGGRLVQAGGSRRLSCAASGSTFYTNDMGWYIQAPGKERELVAAISSGGDYADSVKGRFTISRDNAKNTVYLQMNSLKPEDTAVYYCAKADTKWGQGTQVTVSS", "polyreactivity (PSR sort gate)": "low polyreactivity"},
      {"sequence": "QVQLVESGGRLVQAGGTLRLSCADSGNTLHVYAMGWYRQAPGKERELVARITGGGRKYYADSVKGRFTISRDNAKNTVYLLMNSLNPEDTAVYYCATDYYGHKFLYDYWGQGTQVTVSS", "polyreactivity (PSR sort gate)": "low polyreactivity"},
      {"sequence": "QVQLVESGGRLVQAVGSLRLSCAASGRTFEYYNMGWYRQEPGKEREFVAANTWGGGSTSYADSVKGRFTISRDNAKNTVYLQMNSLKPEDTAVYYCAADDVYYDDDYWGQGTQVTVSS", "polyreactivity (PSR sort gate)": "high polyreactivity"},
      {"sequence": "QVQLVESGGRLVQGRGSLRLSCAASGRTFHIYDIGWYRQAPGKERELVAAIRGRSGSTYYADSVKGRFTISRDNAKNNDYLQMNSLTPEDNAVYYCAAENLGRFVASEYDYWGQGTQVTVSS", "polyreactivity (PSR sort gate)": "high polyreactivity"},
      {"sequence": "QVQLVESGGSIVQAGGSLRLSCAASGSTFDVYDMGWYRHAPGKERELVAAITTSGGGTYYADSVKGRFTISRDNAKNTGYLQMNSLKPEDTAVYYCAADTWRDGDDYWGQGTQVTVSS", "polyreactivity (PSR sort gate)": "low polyreactivity"},
      {"sequence": "QVQLVESGGSLVQAGGSLRLSCAASGFIFIRYAMGWYRQAPGKERELVAAITTSTGRTYYADSVKGRFTISRDNAKNTVYLQMNSLKPEDTAVYYCAAVPWKRYDYYTPFARGYWGQGTQVTVSS", "polyreactivity (PSR sort gate)": "low polyreactivity"},
      {"sequence": "QVQLVESGGVFVQAGGSLRLSCAASGSIFPYVNAMGWYRQAPGKEREFVASIPGGGGTKYADSVKGRFTISRDNAKNTVYLQMNSLKAEDTAVYYCNATSGNPASTAWMNYWGQGTQVSVSS", "polyreactivity (PSR sort gate)": "low polyreactivity"},
      {"sequence": "QVQLVESGGVIVQAGGSLRLSCAASGFTFQAYAKGWYRQAPGKETELVAAITRSGGRTYYADSVKGRFTISRDNAKNTVYFQMKRLKPEDTAVYYCAKLSDSITLYGYWGQGTQVTVSS", "polyreactivity (PSR sort gate)": "high polyreactivity"},
      {"sequence": "QVQLVESGGVLDQAGGSLRLSCAAAGITSPDNVMGWYRKAPGKEFDLVAANSGSGGSTYYADYVQGRFTISRDNAKNSVYLQINILKPEDTAVYYCAADVEYKVFPGDYWGQGTQVTVSS", "polyreactivity (PSR sort gate)": "low polyreactivity"},
      {"sequence": "QVQLVESGGVLFQAGGSLRLSCAASGRISYANAIGWYRQAPGKESEMVASITYSAGSTYADSVKGRFTISRDNAKNTVYLQMISLKPEDTAVYYCAKRPCQHYRSYLMDYWGQGTQVNVSS", "polyreactivity (PSR sort gate)": "low polyreactivity"},
      {"sequence": "QVQLVESGGVLLQGGGSLRLTWAASGGIFTDYTIRSYRQAPGKERELVADITWTGGSTYYPDSVKGRFTISRDNAKNTVYLQMNSLKPEDTAVYYCAADDYWVNLDYWGQGTQVTVSS", "polyreactivity (PSR sort gate)": "low polyreactivity"},
      {"sequence": "QVQLVESGGVLVQAGASLRLSCAASGLTFAVYTMGGYRQAPGKEMELVAAITWDGGITYYADSVKGRFTISRDNAKYTVYLQMNSLKPEDTAVYYCAADYALGEVYWYNYWGQGTQVTVSS", "polyreactivity (PSR sort gate)": "low polyreactivity"},
      {"sequence": "QVQLVESGGVLVQAGGSLRISSAASGRIFKVYAMGWYRQAPGKEREFVAVITGGGSTNYADSVKGRFTISRDNAKNTVYLQMNSLKPEDTGVYYCATEGYGHGGETDGGVYSDLGYWGQGTQVTVSS", "polyreactivity (PSR sort gate)": "low polyreactivity"},
      {"sequence": "QVQLVESGGVLVQAGGSLRLSCAASGFIFRSNGMGWYRQARGKERELVAVITSSTGSTSYADSVKGRFTISRDNAKNTVYLQMNSLKPEDTAVYSCAADYQFGRGAEPYVFFDPEMDYWGQGTQVTESS", "polyreactivity (PSR sort gate)": "low polyreactivity"},
      {"sequence": "QVQLVESGGVLVQAGGSLRLSCAASGFTFGPYAMGWYRPAPGKERELVATIRSGDSTNYADSVKGRFTISRDNAKNTVYLQMNSLKPEDTAVYYCARDARASARRKRYDYGGQGTQVTVSS", "polyreactivity (PSR sort gate)": "low polyreactivity"},
      {"sequence": "QVQLVESGGVLVQAGGSLRLSCAASGFTFLAYAMGWYRQAPGKERELVAAINSSDGTTHYADSVKGRFTISRDNAKITVYLQMNSLKPEDTAVYYCAVSQVRTGEGYHYWGQGTQVTVSS", "polyreactivity (PSR sort gate)": "low polyreactivity"},
      {"sequence": "QVQLVESGGVLVQAGGSLRLSCAASGIIFGRDTMGWYRQAPGKERELVAAITSSGITYYADSVKGRFTFSRDNAKNCVYLQMNSLKPEDTAVYYCIADYSIPGYYWPYDYWGQCTQVTVSS", "polyreactivity (PSR sort gate)": "low polyreactivity"},
      {"sequence": "QVQLVESGGVLVQAGGSLRLSCAASGIIFVYNPMGWYRPAPGKERELVAGISWNGVSTYYADSVKWRFTISRDYAKYTVYLQMNSLKPEDTAVYYCAASLWVYVGQARYLWYDYWGQGTQVTVSS", "polyreactivity (PSR sort gate)": "low polyreactivity"}
    ]}
  ]
}
